Assays:
[1] = biological target: T1, Escherichia coli 2,3-aminomutase (P39280 protein) (Escherichia coli, UniProt P39280); assay: Lysine 2,3-aminomutase activity of E. coli P39280 protein, HPLC of PITC derivatives; format: biochemical; conditions: L-lysine 44 mM, 37° C. for 60 min
T1 sequence (P39280 whole entry, looked up): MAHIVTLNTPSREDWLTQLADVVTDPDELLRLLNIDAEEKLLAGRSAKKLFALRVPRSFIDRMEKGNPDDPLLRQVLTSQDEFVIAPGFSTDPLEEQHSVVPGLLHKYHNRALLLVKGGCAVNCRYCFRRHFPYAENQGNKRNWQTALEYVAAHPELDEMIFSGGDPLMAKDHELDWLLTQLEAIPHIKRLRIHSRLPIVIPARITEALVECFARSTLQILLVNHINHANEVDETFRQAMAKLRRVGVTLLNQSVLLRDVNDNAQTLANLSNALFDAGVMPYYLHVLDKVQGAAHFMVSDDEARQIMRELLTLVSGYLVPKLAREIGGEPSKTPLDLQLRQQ
Method: Lysine 2,3-aminomutase activity was measured with the Escherichia coli 2,3-aminomutase (P39280 protein) as described for alanine 2,3-aminomutase (see Example 5) with the following exceptions: P39280 protein, (25.4 μM-subunit); S-(5′-adenosyl)-L-methionine 90 μM; sodium hydrosulfite 2.3 mM; L-lysine 44 mM. The reaction was conducted at 37° C. for 60 min. The HPLC gradient established was 0-10% Buffer B in 35 min, 10-30% Buffer B in 35 min, 30-55% Buffer B in 35 min, and 55-100% Buffer B in 20 min. The PITC derivative of L-lysine eluted at a retention time of 101 min whereas the PITC derivative of β-lysine eluted at 95.6 min.

[2] = biological target: T2, Clostridial lysine 2,3-aminomutase (Clostridium subterminale, UniProt Q9XBQ8); assay: Lysine 2,3-aminomutase activity, conversion of C-14 L-α-lysine to L-β-lysine (paper electrophoresis); format: biochemical, Clostridium subterminale SB4; conditions: purified recombinant produced enzyme
T2 construct: made in house; host or cells: E. coli BL21(DE3) with pET-23a(+) (lysine 2,3-aminomutase gene) and pAlter-Ex2 (dnaY gene)
Method: Aerobically grown E. coli cells (1 ml) containing the pET 23a(+) plasmid vector with the Clostridial lysine 2,3-aminomutase gene and the p-Alter-EX2 plasmid vector with the E. coli dnaY gene were used to seed a glass fermentor (Virtis Laboratory Fermentor #233395, Virtis Corporation, Gardiner, N.Y.) containing 15 liters of 2×YT media (240 gm Difco Bactotryptone, 150 gm Bacto yeast extract, […], Difco Laboratories, Detroit, Mich.) and supplemented with 50 μM Fe(II)SO4, 50 μM ZnSO4, 50 μM Na2S, 4 mM sodium thioglycolate, 100 μg/ml ampicillin, and 10 μg/ml tetracycline. The sealed flask was made anaerobic by gentle bubbling of nitrogen gas for 3 hours prior to cell inoculation. Anaerobicity was monitored by the presence of a small quantity of methylene blue (10 mg) which remains colorless in the absence of oxygen. After approximately 14 hours anaerobic culture at 37° C. when the cell density had reached 0.05 OD (optical density) at 600 nm, 0.2% (w/v) D-(+) glucose was added. […]
The supernatant was used to measure L-β-lysine formation according to the procedure of Ballinger et al. Biochemistry 31:10782 (1992). […] The mixture was spotted onto chromatography paper (Whatman #3001917, Whatman, LTD, Maidstone, England), the amino acids separated by electrophoresis and radioactivity measured according to the published procedure. […]

B1: P39280-protein: E. coli polypeptide, SEQ ID NO: 4, distant homologue of lysine 2,3-aminomutase from Cl. subterminale (protein, listed as Escherichia coli)
chain: MAHIVTLNTPSREDWLTQLADVVTDPDELLRLLNIDAEEKLLAGRSAKKLFALRVPRSFIDRMEKGNPDDPLLRQVLTSQDEFVIAPGFSTDPLEEQHSVVPGLLHKYHNRALLLVKGGCAVNCRYCFRRHFPYAENQGNKRNWQTALEYVAAHPELDEMIFSGGDPLMAKDHELDWLLTQLEAIPHIKRLRIHSRLPIVIPARITEALVECFARSTLQILLVNHINHANEVDETFRQAMAKLRRVGVTLLNQSVLLRDVNDNAQTLANLSNALFDAGVMPYYLHVLDKVQGAAHFMVSDDEARQIMRELLTLVSGYLVPKLAREIGGEPSKTPLDLQLRQQ
[1]
  2,3-aminomutase activity toward L-lysine: does display 2,3-aminomutase activity

B2: purified recombinant produced lysine 2,3-aminomutase: Clostridial lysine 2,3-aminomutase expressed in E. coli and purified (protein, UniProt Q9XBQ8 1-416, looked up)
L-lysine 2,3-aminomutase: MINRRYELFKDVSDADWNDWRWQVRNRIETVEELKKYIPLTKEEEEGVAQCVKSLRMAITPYYLSLIDPNDPNDPVRKQAIPTALELNKAAADLEDPLHEDTDSPVPGLTHRYPDRVLLLITDMCSMYCRHCTRRRFAGQSDDSMPMERIDKAIDYIRNTPQVRDVLLSGGDALLVSDETLEYIIAKLREIPHVEIVRIGSRTPVVLPQRITPELVNMLKKYHPVWLNTHFNHPNEITEESTRACQLLADAGVPLGNQSVLLRGVNDCVHVMKELVNKLVKIRVRPYYIYQCDLSLGLEHFRTPVSKGIEIIEGLRGHTSGYCVPTFVVDAPGGGGKTPVMPNYVISQSHDKVILRNFEGVITTYSEPINYTPGCNCDVCTGKKKVHKVGVAGLLNGEGMALEPVGLERNKRHVQE
[2]
  enzyme activity: 34.5±1.6 μmoles lysine min^1 mg^−1 protein
